In patent US20250092156A1:

Target: FLAG-tagged WT RPTPα (WT-RPTPA, NM 008980.2, C-terminal FLAG) (mouse) (UniProt P18052)
Assay: FLIM-FRET, anti-HA A488 donor with anti-FLAG A568 acceptor; unquenched donor around 2.4 ns

Sequence of FLAG-tagged WT RPTPα (WT-RPTPA, NM 008980.2, C-terminal FLAG) (mouse) (P18052 20-829 limits assumed): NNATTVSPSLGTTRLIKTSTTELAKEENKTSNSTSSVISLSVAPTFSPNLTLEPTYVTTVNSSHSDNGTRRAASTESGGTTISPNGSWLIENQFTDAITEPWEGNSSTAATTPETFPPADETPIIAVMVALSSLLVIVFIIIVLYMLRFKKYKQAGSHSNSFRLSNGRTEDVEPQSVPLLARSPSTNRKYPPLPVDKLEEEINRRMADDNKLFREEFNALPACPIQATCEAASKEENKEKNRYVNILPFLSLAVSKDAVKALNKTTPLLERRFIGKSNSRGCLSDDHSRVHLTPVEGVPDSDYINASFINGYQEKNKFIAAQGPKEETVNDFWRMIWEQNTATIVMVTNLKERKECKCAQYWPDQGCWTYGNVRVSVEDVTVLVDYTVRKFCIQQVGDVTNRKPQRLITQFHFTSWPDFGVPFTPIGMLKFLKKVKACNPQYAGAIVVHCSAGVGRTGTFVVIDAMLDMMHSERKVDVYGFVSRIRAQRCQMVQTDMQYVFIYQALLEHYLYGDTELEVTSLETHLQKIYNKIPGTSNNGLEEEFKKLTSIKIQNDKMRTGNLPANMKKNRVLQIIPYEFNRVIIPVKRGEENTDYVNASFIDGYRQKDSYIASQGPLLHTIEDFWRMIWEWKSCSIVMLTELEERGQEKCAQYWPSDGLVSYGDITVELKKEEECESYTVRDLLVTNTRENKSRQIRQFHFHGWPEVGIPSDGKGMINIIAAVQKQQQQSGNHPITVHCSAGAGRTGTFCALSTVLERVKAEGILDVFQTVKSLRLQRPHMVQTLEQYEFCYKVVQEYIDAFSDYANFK
Sequence of HA-tagged WT RPTPα (WT-RPTPA, NM 008980.2, C-terminal HA) (P18052 20-829): as the sequence (P18052 20-829 limits assumed) above

HA-tagged WT RPTPα (WT-RPTPA, NM 008980.2, C-terminal HA) (from UniProt P18052 20-829) (receptor)
donor fluorescence lifetime of quenched (H-FRET) population: 1.15 ns
